This passage reports Ka and Kd results from paper PMC10040874 (2023).

Test [1] has as its target D. rerio CNNM CBS-pair domain (D. rerio). Kind of test: ITC. In general terms: In ITC the heat of successive injections is recorded.
Test [2] shares this target. Kind of test: ITC. This is another data set of the same source.
For test [3], the target named is Drosophila melanogaster CNNM CBS-pair domain, GST-tagged (D. melanogaster, UniProt A0A0B7P9G0 362-515). Kind of test: ITC.
The target in test [4] is T1, human CNNM3 CBS-pair domain (human, UniProt Q8NE01 309-452). Kind of test: ITC.
T1 sequence (Q8NE01 309-452): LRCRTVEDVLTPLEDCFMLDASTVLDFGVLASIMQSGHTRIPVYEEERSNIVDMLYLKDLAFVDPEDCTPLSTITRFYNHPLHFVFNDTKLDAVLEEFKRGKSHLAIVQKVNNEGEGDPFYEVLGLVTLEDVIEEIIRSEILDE
The target in test [5] is T1, human CNNM3 CBS-pair domain. Kind of test: ITC. This is another data set of the same source.
In test [6] the target is T2, Toxoplasma gondii CNNM CBS-pair domain (T. gondii).
T2 chain: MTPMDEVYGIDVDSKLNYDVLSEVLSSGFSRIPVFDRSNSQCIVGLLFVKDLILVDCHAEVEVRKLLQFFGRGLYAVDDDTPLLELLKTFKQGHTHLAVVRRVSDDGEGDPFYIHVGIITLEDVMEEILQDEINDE
The test is described as follows: ITC.

For test [7], the target named is T2, Toxoplasma gondii CNNM CBS-pair domain. Kind of test: ITC.
The target of test [8] is M. brevicollis CNNM CBS-pair domain (M. brevicollis). Kind of test: ITC.
For test [9] the target is unchanged. Kind of test: ITC. The source holds these as a separate data set.
Test [10] addresses T3, CBS-pair domain of a C. elegans CNNM protein (the one of two expressed that bound with 13 μM affinity) (C. elegans).
T3 chain: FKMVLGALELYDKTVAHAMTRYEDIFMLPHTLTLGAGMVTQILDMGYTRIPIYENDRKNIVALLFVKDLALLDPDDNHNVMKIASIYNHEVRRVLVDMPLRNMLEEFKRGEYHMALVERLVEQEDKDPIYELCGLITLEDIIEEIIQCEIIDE
The test is described as follows: ITC; CNNM3.

In test [11] the target is T4, CBS-pair domain of a C. elegans CNNM protein (the one of two expressed that bound with 1 μM affinity) (C. elegans).
T4 chain: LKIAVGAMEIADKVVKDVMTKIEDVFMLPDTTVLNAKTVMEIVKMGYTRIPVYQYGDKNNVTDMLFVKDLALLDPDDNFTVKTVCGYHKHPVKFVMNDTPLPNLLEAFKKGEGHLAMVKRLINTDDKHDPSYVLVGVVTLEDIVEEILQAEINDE
Kind of test: ITC; CNNM1.

In test [12] the target is T4, CBS-pair domain of a C. elegans CNNM …. The test is described as follows: ITC; CNNM1.

Sequence of D. rerio CNNM CBS-pair domain (D. rerio) (chain, as listed by the source): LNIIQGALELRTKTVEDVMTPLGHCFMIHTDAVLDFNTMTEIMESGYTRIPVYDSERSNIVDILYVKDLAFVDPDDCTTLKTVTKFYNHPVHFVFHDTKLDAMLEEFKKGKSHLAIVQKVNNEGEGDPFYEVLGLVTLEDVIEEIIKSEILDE
Sequence of Drosophila melanogaster CNNM CBS-pair domain, GST-tagged (A0A0B7P9G0 362-515): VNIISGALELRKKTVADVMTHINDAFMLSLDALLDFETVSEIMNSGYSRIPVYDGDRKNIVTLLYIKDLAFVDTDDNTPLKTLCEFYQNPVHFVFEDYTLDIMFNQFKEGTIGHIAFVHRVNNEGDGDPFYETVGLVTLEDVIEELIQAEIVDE

B1: D. rerio PRL (enzyme)
chain: MARMNRPAPVEVCYKNMRFLITHNPTNSTLSSFIEDLKKYGVTTVVRVCEITYDKTPLEKNGITVVDWPFDDGAPPPSKVVEDWLSLLKRRFIEEPGCCVAVHCVAGLGRAPVLVAVALIESGMKYEDAIQFIRQKRRGAINSKQLTYLEKYRPKQRLRYKHPHIFKNK
modifications: Table S2 says CNNM4 only; the choice of cnnm4a over cnnm4b is assumed
B1 gave a Ka in test [1] of 5.84e+07 M⁻¹. This molecule registered a Kd in test [2] of 17 nM.

B2: Drosophila melanogaster PRL (wild-type) (enzyme)
chain: MSITMRQKDLRPAPALIEYKGMKFLITDRPSDITINHYIMELKKNNVNTVVRVCEPSYNTDELETQGITVKDLAFEDGTFPPQQVVDEWFEVLKDKYQQNPEACVAVHCVAGLGRAPVLVALALIELGLKYEAAVEMIRDKRRGAINAKQLSFLEKYKPKARLKHKNGHKNSCSVQ
On to B2, for which, in [3], the Ka was 2.84e+06 M⁻¹.

B3: human PRL2 (enzyme)
chain: MNRPAPVEISYENMRFLITHNPTNATLNKFTEELKKYGVTTLVRVCDATYDKAPVEKEGIHVLDWPFDDGAPPPNQIVDDWLNLLKTKFREEPGCCVAVHCVAGLGRAPVLVALALIECGMKYEDAVQFIRQKRRGAFNSKQLLYLEKYRPKMRLRFRDTNGH
Take B3: the Ka in test [4] stood at 3.63e+07 M⁻¹. This molecule also gave a Kd in [5] of 28 nM.

B4: Toxoplasma gondii PRL (enzyme)
chain: MNEASSCLSPEEPRSCDNREEGTTRELRSGSHMGKGKLGHSPTTSHSELTREGSSVDCGRRGGNEEKTEEKRSEKAGAERECERKTQRPRFDGDGSSLSPRSNASRGSACSTRSCESHEKVGRTLSGDSTGRDGVCSVSSARQPSLRRKSAAEEVGREVKVDGKALDSQIELVRTKNRGKSEVTRLGRGAGSACAVSVSPLGTARHVPSGRQPSERRQSAKPLTKLSSSSSSHNKTTMVPTVMNTPTRIEAGRQKFLIFDAPSQENLPAYIEEMRAYEVTDLVRTCERTYDDKTVLASGIRPHELIFPDGEAPPDDVIDEWLTLCNAVSQQRGAIAIHCVAGLGRAPVLVAIALIEKGMDPMDAIMFIRERRKGAINRRQLQFLKGYKRRSNYKKCCGGR
In [6], B4 returned a Ka of 134000 M⁻¹. This molecule registered a Kd in [7] of 7.4 µM.

B5: M. brevicollis PRL (enzyme)
chain: MARNHISKISHKNMRFLITDRPSDATVEDYVRVLQQENVVALCRVCEPSYDVSKLKDNGIEVHDWAFQDGAPPPDEVIDNWLRLCRETFAQHPNGFVAVHCVAGLGRAPVLVALSLIEAGMSSEDAVLFIREKRHGAINRRQLQFLQDYKRRGKAKG
The molecule B5 had a Ka in test [8] of 3.24e+06 M⁻¹. Besides, in test [9], the Kd was 300 nM.

B6: Caenorhabditis elegans PRL (enzyme)
chain: MSAAVQKRASTNTVAATTYFKPAPSEIAWGKMRFLITDRPNNSSIQSYIEELEKHGARAVVRVCEPTYDTLALKEAGIDVLDWQFSDGSPPPPEVIKSWFQLCMTSFKEHPDKSIAVHCVAGLGRAPVLVAIALIEAGMKYEDAVEMIRTQRRGALNQKQLKFLETYKANGELRRLRGNVDGKQKSCCIQ
modifications: Assigning the 13 uM binder to CNNM3 is inferred from listing order (Figure 4 not in text)
B6 yielded an equilibrium dissociation constant (Kd) in test [10] of 970 nM.

B7: Caenorhabditis elegans PRL (enzyme)
chain: MSAAVQKRASTNTVAATTYFKPAPSEIAWGKMRFLITDRPNNSSIQSYIEELEKHGARAVVRVCEPTYDTLALKEAGIDVLDWQFSDGSPPPPEVIKSWFQLCMTSFKEHPDKSIAVHCVAGLGRAPVLVAIALIEAGMKYEDAVEMIRTQRRGALNQKQLKFLETYKANGELRRLRGNVDGKQKSCCIQ
modifications: Table S2: only CNNM1 (376-530) and CNNM3 (375-527) gave protein; assigning the 1 uM binder to CNNM1 is inferred from listing order (Figure 4 not in text)
For the molecule B7, in test [11], the Ka came out at 76100 M⁻¹. For the same molecule, in [12], the Kd amounted to 13 µM.

As usually defined, the Kd is a measure of binding affinity in units of concentration. A high value points to weaker binding.
